{
  "source": "patent US20030091565A1",
  "about": "(Human Genome Sciences, published 2003)",
  "binders": {"B1": {"name": "DX876 (peptide)", "peptide": "Ac-WYDPLTKLWLGGK(fitc)", "notes": "10-mer core (positions 3-12 of the 14-mer) with GGK linker"}},
  "key": {"[1]": {"biological_target": "T1, B lymphocyte stimulator protein (BLyS), recombinant (human, UniProt Q9Y275 134-285, limits assumed, biotinylated in the phage screening and phage ELISA; unlabeled in fluorescence anisotropy)", "T1 construct": "also called biotinylated BLyS; b-BLyS", "T1 sequence (Q9Y275 134-285 limits assumed)": "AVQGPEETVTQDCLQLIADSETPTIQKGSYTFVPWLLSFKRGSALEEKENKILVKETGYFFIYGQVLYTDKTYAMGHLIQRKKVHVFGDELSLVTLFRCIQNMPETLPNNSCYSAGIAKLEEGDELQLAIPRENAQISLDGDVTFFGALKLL", "assay": "fluorescence anisotropy", "method": "Dissociation constants between the synthetic peptides and BLyS (free in solution) were measured by fluorescence anisotropy (FA). In these experiments, the concentration of the fluorescein-labeled peptide is held constant and the BLyS protein concentration was varied. The observed change in anisotropy is fit to the following equation via nonlinear regression to obtain the apparent KD.\nBinding reactions containing 50 nM fluorescein-labeled peptide and a varied concentration of BLyS in a volume between 10 and 20 μL per well were performed in 384 well microplates. Reactions were assayed using a Tecan Polarion fluorescence polarization plate reader. Cross-competition studies between peptides were performed using 50 nM fluorescein-labeled peptide and 1-2 μM BLyS in the presence and absence of 100 μM unlabeled peptide. […] Other buffers in which dissociation constants of BLyS Binding polypeptides were detremined include: [pH 6.0, 0.01% Tween], [pH 6.0, 0.1% gelatin], [pH5.0, 0.01% Tween], [pH9.0, 0.1% Tween], [pH6.0, 15% ethylene glycol, 0.01 % Tween], ], [pH5.0, 15% ethylene glycol, 0.01 % Tween], and [pH9.0, 15% ethylene glycol, 0.01 % Tween]."}, "[2]": {"biological_target": "T1, B lymphocyte stimulator protein (BLyS), …", "assay": "not stated there (fluorescence anisotropy elsewhere)"}, "[3]": {"biological_target": "T1, B lymphocyte stimulator protein (BLyS), …", "assay": "not stated there"}},
  "note": "No end group written: not given here.",
  "data": [
    {"binder": "B1", "values": [
      {"measurement": "Kd", "setting": "[1]", "value": 171, "unit": "nM"}
    ]},
    {"binder": "Ac-WTDSLTGLWFPDGGPGPEGGGK", "note": "[DX221]", "values": [
      {"measurement": "Kd", "setting": "[2]", "value": 3000, "unit": "nM"}
    ]},
    {"binder": "VPFCDLLTKHCFEA (on M13 phage; also called TN8-01-B07)", "note": "[453-01-B07]", "values": [
      {"measurement": "Kd", "setting": "[3]", "value": 700, "unit": "nM"}
    ]}
  ]
}
